{"source": "patent US20240392002A1", "about": "(EXELIXIS, published 2024)", "key": {"[1]": {"molecular_target": "T1, extracellular domain of human ROR1 (human, UniProt Q01973 30-406)", "T1 construct": "bought protein; biotinylated in the bivalent assay format; also called Acro Cat. No. RO1-H522y", "T1 sequence (Q01973 30-406 limits assumed)": "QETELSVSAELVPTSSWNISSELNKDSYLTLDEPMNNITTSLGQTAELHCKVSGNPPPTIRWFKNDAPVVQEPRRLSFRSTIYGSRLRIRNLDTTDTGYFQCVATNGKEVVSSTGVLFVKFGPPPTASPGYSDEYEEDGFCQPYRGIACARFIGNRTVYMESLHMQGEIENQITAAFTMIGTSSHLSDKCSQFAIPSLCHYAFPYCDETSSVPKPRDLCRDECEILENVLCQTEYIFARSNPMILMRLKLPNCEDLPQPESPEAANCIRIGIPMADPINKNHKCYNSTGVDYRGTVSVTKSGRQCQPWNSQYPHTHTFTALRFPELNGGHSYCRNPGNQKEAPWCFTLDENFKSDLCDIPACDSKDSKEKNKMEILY", "experiment": "BLI (Octet QK384), monovalent format: B-body captured on Fc biosensor, untagged antigen as analyte", "method": "(§1) More specifically, monovalent binding affinity analysis was performed using the Octet^QK 384 (ForteBio) using Fc biosensors. Unlabeled B-body™ is first bound to the Fc biosensor at a concentration to yield approximately 1 nm response (typically 10 to 50 nM protein). The biosensors are then equilibrated in 10× Kinetic Buffer (ForteBio) to establish a baseline. The untagged monomer of each antigen is contacted with the antibody-coated sensors at concentrations ranging from 50 nm to 0.75 nM. The association response and dissociation were monitored and recorded. The resulting Kₒₙ and Koff was fit using the Octet analysis software.\n(§2) Monovalent binding analysis was performed as described above and the antibody was captured with an Fc sensor and contacted with the indicated antigen for the association phase followed by a dissociation phase in buffer only."}, "[2]": {"molecular_target": "T2, cynomolgus CD3 delta and epsilon heterodimer (cynomolgus, UniProt Q95LI5 22-117; Q95LI8 22-105)", "T2 construct": "untagged monomer of the antigen in solution", "T2 sequence (Q95LI5 22-117, stated change not applied, chain 1 of 2)": "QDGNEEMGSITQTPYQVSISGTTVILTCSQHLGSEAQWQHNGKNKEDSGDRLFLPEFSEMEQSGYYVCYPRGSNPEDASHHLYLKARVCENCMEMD", "T2 sequence (Q95LI8 22-105, stated change not applied, chain 2 of 2)": "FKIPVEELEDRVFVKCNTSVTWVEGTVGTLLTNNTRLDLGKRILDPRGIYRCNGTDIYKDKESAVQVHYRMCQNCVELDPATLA", "experiment": "BLI (Octet QK384), monovalent format: B-body captured on Fc biosensor, untagged antigen as analyte", "method": "as §1"}, "[3]": {"molecular_target": "T1, extracellular domain of human ROR1", "experiment": "BLI (Octet QK384), bivalent format: biotinylated antigen on streptavidin biosensor, 1x2 B-body as analyte", "method": "(§3) Bivalent binding analysis was performed using the Octet^QK 384 (ForteBio) using streptavidin biosensors. Biotinylated antigen was first bound to the streptavidin biosensor at a concentration to yield approximately 1 nm response (typically 10 to 50 nM biotinylated protein). The biosensors were then equilibrated in 10× Kinetic Buffer (ForteBio) to establish a baseline. The 1×2 B-body™ was contacted with the antigen-coated sensors at concentrations ranging from 50 nm to 0.75 nM. The association response and dissociation were monitored and recorded. The resulting Kₒₙ and Koff was fit using the Octet analysis software."}, "[4]": {"molecular_target": "T1, extracellular domain of human ROR1", "experiment": "BLI, bivalent format, biotinylated antigen on streptavidin biosensor, B-body 50 nM to 0.75 nM", "method": "as §3"}, "[5]": {"molecular_target": "T1, extracellular domain of human ROR1", "experiment": "BLI, monovalent format, B-body on Fc biosensor, soluble antigen", "method": "as §1, §2"}, "[6]": {"molecular_target": "T2, cynomolgus CD3 delta and epsilon …", "experiment": "BLI, B-body on Fc biosensor, antigen monomer 50 nM to 0.75 nM", "method": "as §1"}, "[7]": {"molecular_target": "T3, extracellular domain of human ROR2 (human, UniProt Q01974 34-403)", "T3 construct": "bought protein; biotinylated in the bivalent assay format; also called Acro Cat. No. RO2-H52E5", "T3 sequence (Q01974 34-403 limits assumed)": "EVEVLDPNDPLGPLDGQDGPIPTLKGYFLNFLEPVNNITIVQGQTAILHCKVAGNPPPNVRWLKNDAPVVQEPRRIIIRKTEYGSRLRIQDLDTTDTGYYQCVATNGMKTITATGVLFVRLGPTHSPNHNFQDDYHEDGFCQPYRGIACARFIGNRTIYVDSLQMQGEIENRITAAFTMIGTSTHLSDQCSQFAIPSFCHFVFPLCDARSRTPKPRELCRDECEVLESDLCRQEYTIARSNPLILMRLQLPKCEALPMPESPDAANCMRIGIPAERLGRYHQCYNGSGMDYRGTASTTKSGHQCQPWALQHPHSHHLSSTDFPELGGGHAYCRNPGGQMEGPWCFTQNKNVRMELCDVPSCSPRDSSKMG", "experiment": "BLI (Octet QK384), monovalent format: B-body captured on Fc biosensor, untagged antigen as analyte", "method": "as §1, §2\n(§4) Next, the binding of the antibody to ROR1 and ROR2 was assessed using the monovalent and bivalent BLI binding assessments as described in Example 24."}, "[8]": {"molecular_target": "T1, extracellular domain of human ROR1", "experiment": "BLI (Octet QK384), monovalent format: B-body captured on Fc biosensor, untagged antigen as analyte", "method": "as §1, §2, §4", "remark": "listed apart in the source"}, "[9]": {"molecular_target": "T2, cynomolgus CD3 delta and epsilon …", "experiment": "BLI, monovalent format, B-body on Fc biosensor", "method": "as §1"}, "[10]": {"molecular_target": "T3, extracellular domain of human ROR2", "experiment": "BLI, monovalent format", "method": "as §1, §4"}, "[11]": {"molecular_target": "T1, extracellular domain of human ROR1", "experiment": "BLI, monovalent format", "method": "as §1, §4"}, "[12]": {"molecular_target": "T3, extracellular domain of human ROR2", "experiment": "BLI (Octet QK384), bivalent format: biotinylated antigen on streptavidin biosensor, 1x2 B-body as analyte", "method": "as §3, §4"}, "[13]": {"molecular_target": "T1, extracellular domain of human ROR1", "experiment": "BLI (Octet QK384), bivalent format: biotinylated antigen on streptavidin biosensor, 1x2 B-body as analyte", "method": "as §3, §4", "remark": "listed apart in the source"}, "[14]": {"molecular_target": "T3, extracellular domain of human ROR2", "experiment": "BLI, bivalent format, biotinylated antigen on streptavidin biosensor", "method": "as §3, §4"}, "[15]": {"molecular_target": "T1, extracellular domain of human ROR1", "experiment": "BLI, bivalent format, biotinylated antigen on streptavidin biosensor", "method": "as §3, §4"}}}
{"binder": "I2-A27 1×2 B-body™ bispecific antibody (ROR1xCD3) (bispecific antibody, two ROR sites, one SP34-89 CD3 site; chain 5 is the same as chain 2; also called I2A-27 BC1 1×2) chain 1: DIQMTQSPSSLSASVGDRVTITCRASQSVSSAVAWYQQKPGKAPKLLIYSASSLYSGVPSRFSGSRSGTDFTLTISSLQPEDFATYYCQQYYSSPRTFGQGTKVEIKRTPREPQVYTLPPSRDELTKNQVSLKCLVKGFYPSDIAVEWESNGQPENNYKTTPPVLDSDGSFFLYSKLTVDKSRWQQGNVFSCSVMHEALHNHYTQKSLSLSKSCDKTHTCPPCPAPEAAGGPSVFLFPPKPKDTLMISRTPEVTCVVVDVSHEDPEVKFNWYVDGVEVHNAKTKPREEQYNSTYRVVSVLTVLHQDWLNGKEYKCKVSNKALKAPIEKTISKAKGQPREPQVCTLPPSREEMTKNQVSLSCAVKGFYPSDIAVEWESNGQPENNYKTTPPVLDSDGSFFLVSKLTVDKSRWQQGNVFSCSVMHEALHNHYTQKSLSLSPGK chain 2: EVQLVESGGGLVQPGGSLRLSCAASGFTFKGYYIHWVRQAPGKGLEWVAAIYPYGGSTDYADSVKGRFTISADTSKNTAYLQMNSLRAEDTAVYYCARVYIYGVFDYWGQGTLVTVSSASPREPQVYTDPPSRDELTKNQVSLTCLVKGFYPSDIAVEWESNGQPENNYKTTPPVLDSDGSFFLYSKLTVDKSRWQQGNVFSCSVMHEALHNHYTQKSLSLSGEC chain 3: not shown chain 4: EVQLVESGGGLVQPGGSLRLSCAASGFTFNTYAMNWVRQAPGKGLEWVARIRSKYNNYATYYADSVKGRFSISRDDSKNTAYLQMNSLRAEDTAVYYCVRHGNFGNSYVSWFAYWGQGTLVTVSSASTKGPSVFPLAPSSKSTSGGTAALGCLVKDYFPEPVTVSWNSGALTSGVHTFPAVLQSSGLYSLSSVVTVPSSSLGTQTYICNVNHKPSNTKVDKKVEPPKSC", "values": [{"measurement": "koff", "setting": "[1]", "result": 0.0026, "unit": "s⁻¹"}, {"measurement": "kon", "setting": "[1]", "result": 680000, "unit": "M⁻¹ s⁻¹"}, {"measurement": "koff", "setting": "[2]", "result": 0.00032, "unit": "s⁻¹"}, {"measurement": "kon", "setting": "[2]", "result": 110000, "unit": "M⁻¹ s⁻¹"}, {"measurement": "koff", "setting": "[3]", "result": "3.5e-05", "unit": "s⁻¹"}, {"measurement": "kon", "setting": "[3]", "result": 490000, "unit": "M⁻¹ s⁻¹"}, {"measurement": "Kd", "setting": "[4]", "result": 710, "unit": "pM"}, {"measurement": "Kd", "setting": "[5]", "result": 3800, "unit": "pM"}, {"measurement": "Kd", "setting": "[6]", "result": 3000, "unit": "pM"}]}
{"binder": "I2-A10 D54E Y55Q 1×2 B-body™ (ROR1/ROR2xCD3) (bispecific antibody, two ROR sites, one SP34-89 CD3 site; chain 5 is the same as chain 2; also called I2A-10 D54E Y55Q BC1 1×2) chain 1: DIQMTQSPSSLSASVGDRVTITCRASQSVSSAVAWYQQKPGKAPKLLIYSASSLQSGVPSRFSGSRSGTDFTLTISSLQPEDFATYYCQQYYYYPGTFGQGTKVEIKRTPREPQVYTLPPSRDELTKNQVSLKCLVKGFYPSDIAVEWESNGQPENNYKTTPPVLDSDGSFFLYSKLTVDKSRWQQGNVFSCSVMHEALHNHYTQKSLSLSKSCDKTHTCPPCPAPEAAGGPSVFLFPPKPKDTLMISRTPEVTCVVVDVSHEDPEVKFNWYVDGVEVHNAKTKPREEQYNSTYRVVSVLTVLHQDWLNGKEYKCKVSNKALKAPIEKTISKAKGQPREPQVCTLPPSREEMTKNQVSLSCAVKGFYPSDIAVEWESNGQPENNYKTTPPVLDSDGSFFLVSKLTVDKSRWQQGNVFSCSVMHEALHNHYTQKSLSLSPGK chain 2: EVQLVESGGGLVQPGGSLRLSCAASGFTFSSYFIHWVRQAPGKGLEWVAGIYPSEGYTSYADSVKGRFTISADTSKNTAYLQMNSLRAEDTAVYYCARYYVSGMDYWGQGTLVTVSSASPREPQVYTDPPSRDELTKNQVSLTCLVKGFYPSDIAVEWESNGQPENNYKTTPPVLDSDGSFFLYSKLTVDKSRWQQGNVFSCSVMHEALHNHYTQKSLSLSGEC chain 3: not shown chain 4: EVQLVESGGGLVQPGGSLRLSCAASGFTFNTYAMNWVRQAPGKGLEWVARIRSKYNNYATYYADSVKGRFSISRDDSKNTAYLQMNSLRAEDTAVYYCVRHGNFGNSYVSWFAYWGQGTLVTVSSASTKGPSVFPLAPSSKSTSGGTAALGCLVKDYFPEPVTVSWNSGALTSGVHTFPAVLQSSGLYSLSSVVTVPSSSLGTQTYICNVNHKPSNTKVDKKVEPPKSC", "values": [{"measurement": "koff", "setting": "[2]", "result": 0.00063, "unit": "s⁻¹"}, {"measurement": "kon", "setting": "[2]", "result": 180000, "unit": "M⁻¹ s⁻¹"}, {"measurement": "koff", "setting": "[7]", "result": "< 1e-07", "unit": "s⁻¹"}, {"measurement": "kon", "setting": "[7]", "result": 140000, "unit": "M⁻¹ s⁻¹"}, {"measurement": "koff", "setting": "[8]", "result": 0.00023, "unit": "s⁻¹"}, {"measurement": "kon", "setting": "[8]", "result": 480000, "unit": "M⁻¹ s⁻¹"}, {"measurement": "Kd", "setting": "[9]", "result": 3500, "unit": "pM"}, {"measurement": "Kd", "setting": "[10]", "result": "< 1", "unit": "pM"}, {"measurement": "Kd", "setting": "[11]", "result": 460, "unit": "pM"}, {"measurement": "Kd", "setting": "[12]", "result": 3.3, "unit": "pM"}, {"measurement": "kon", "setting": "[12]", "result": "1.4e+06", "unit": "M⁻¹ s⁻¹"}, {"measurement": "koff", "setting": "[13]", "result": "1.1e-05", "unit": "s⁻¹"}, {"measurement": "kon", "setting": "[13]", "result": 510000, "unit": "M⁻¹ s⁻¹"}, {"measurement": "Kd", "setting": "[14]", "result": 3, "unit": "pM"}, {"measurement": "Kd", "setting": "[15]", "result": 21, "unit": "pM"}]}
